B1: AMB8LK monoclonal IgG1 anti-ferritin antibody (murine, unconjugated) (antibody, from another filing, V domains shown)
VH: QVQLKESGPGLVAPSQSLSITCTVSGFSLSRYSVHWVRQPPGKGLEWLGTIWGGGSTDYNSVLKSRLSISKDNSKSQVLLKVNSLQTDDTAIYYCASGPYYYTMDYWGQGTSVTVSS
VL: QIVLTQSPAILSASLGEEITLTCSASSSVTFMHWYQQKSGTSPKLLIYTTSNLASGVPSRFSGSGSGTFYSLTISSVEAEDAADYYCHQWSSYPTFGSGTKLEIKR
B2: Bz-CHX-A"-DTPA-AMB8LK (antibody, from another filing, V domains shown)
VH: QVQLKESGPGLVAPSQSLSITCTVSGFSLSRYSVHWVRQPPGKGLEWLGTIWGGGSTDYNSVLKSRLSISKDNSKSQVLLKVNSLQTDDTAIYYCASGPYYYTMDYWGQGTSVTVSS
VL: QIVLTQSPAILSASLGEEITLTCSASSSVTFMHWYQQKSGTSPKLLIYTTSNLASGVPSRFSGSGSGTFYSLTISSVEAEDAADYYCHQWSSYPTFGSGTKLEIKR
B3: Bz-DTPA-AMB8LK (antibody, from another filing, V domains shown)
VH: QVQLKESGPGLVAPSQSLSITCTVSGFSLSRYSVHWVRQPPGKGLEWLGTIWGGGSTDYNSVLKSRLSISKDNSKSQVLLKVNSLQTDDTAIYYCASGPYYYTMDYWGQGTSVTVSS
VL: QIVLTQSPAILSASLGEEITLTCSASSSVTFMHWYQQKSGTSPKLLIYTTSNLASGVPSRFSGSGSGTFYSLTISSVEAEDAADYYCHQWSSYPTFGSGTKLEIKR
B4: Bz-DOTA-AMB8LK (antibody, from another filing, V domains shown)
VH: QVQLKESGPGLVAPSQSLSITCTVSGFSLSRYSVHWVRQPPGKGLEWLGTIWGGGSTDYNSVLKSRLSISKDNSKSQVLLKVNSLQTDDTAIYYCASGPYYYTMDYWGQGTSVTVSS
VL: QIVLTQSPAILSASLGEEITLTCSASSSVTFMHWYQQKSGTSPKLLIYTTSNLASGVPSRFSGSGSGTFYSLTISSVEAEDAADYYCHQWSSYPTFGSGTKLEIKR

Experiments:
human ferritin (human) = human ferritin (human) (UniProt P02794); experiment: method not stated
[1] = biological target: human liver ferritin, Calbiochem (human) (UniProt P02794); experiment: solid-phase RIA, 111In-labelled antibody, ferritin immobilised at 5 ug/ml on tubes
[2] = biological target: human liver ferritin, Calbiochem (human) (UniProt P02794); experiment: solid-phase RIA, 90Y-labelled antibody, ferritin immobilised at 5 ug/ml on tubes
[3] = biological target: ferritin of fixed and permeabilized CAPAN-1 cells (human) (UniProt P02794); experiment: 111In-labelled antibody on fixed and permeabilized CAPAN-1 cells, Lindmo linear extrapolation
Sequence of ferritin of fixed and permeabilized CAPAN-1 cells (human) (P02794 whole entry, chain 1 of 2): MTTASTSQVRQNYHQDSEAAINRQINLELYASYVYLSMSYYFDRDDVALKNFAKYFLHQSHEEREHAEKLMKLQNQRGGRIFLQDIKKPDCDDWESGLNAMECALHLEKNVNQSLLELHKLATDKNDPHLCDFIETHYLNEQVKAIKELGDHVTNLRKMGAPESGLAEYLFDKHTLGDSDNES
Sequence of ferritin of fixed and permeabilized CAPAN-1 cells (human) (P02792 2-175, chain 2 of 2, further chain): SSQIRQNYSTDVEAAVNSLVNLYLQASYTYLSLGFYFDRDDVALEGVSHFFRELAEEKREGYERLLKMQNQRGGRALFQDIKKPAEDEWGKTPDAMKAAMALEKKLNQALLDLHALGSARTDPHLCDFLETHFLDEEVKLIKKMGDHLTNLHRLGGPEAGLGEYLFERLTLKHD

Sequence of human liver ferritin, Calbiochem (human) (P02794 2-183 limits assumed, chain 1 of 2): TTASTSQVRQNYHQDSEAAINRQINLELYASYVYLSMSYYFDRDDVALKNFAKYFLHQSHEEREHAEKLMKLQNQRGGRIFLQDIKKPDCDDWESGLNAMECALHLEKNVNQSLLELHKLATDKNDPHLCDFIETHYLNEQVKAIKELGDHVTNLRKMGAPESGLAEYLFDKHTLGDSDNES
Sequence of human liver ferritin, Calbiochem (human) (P02792 2-175 limits assumed, chain 2 of 2, further chain): as the sequence (P02792 2-175, chain 2 of 2, further chain) above
Sequence of human ferritin (human) (P02794 2-183 limits assumed, chain 1 of 2): as the sequence (P02794 2-183 limits assumed, chain 1 of 2) above
Sequence of human ferritin (human) (P02792 2-175 limits assumed, chain 2 of 2, further chain): as the sequence (P02792 2-175, chain 2 of 2, further chain) above

Binder	Kd (human ferritin (human))	percentage of bound antibody [1]	percentage of bound antibody [2]	immunoreactive fraction [3]
B1	5.1 nM			
B2		74.8%	98.9%	43%
B3		87%	100%	52%
B4		76.8%	73.2%	24%

Reference: patent EP2193147B1
